The supplement of paper PMC10126150
± gives the standard deviation of the averaged measurements.

System: ATP
Test: switch fluorescence ratio, 500 uM ATP over buffer (Cy3 cluster intensity, sum of 5 cycles each) (fold (ratio)); higher = stronger signal-on switching upon ATP binding; sequences stand for … in TCGTCGGCAGCGTCAGATGTGTATAAGAGACAGTTTTTTTTTTTTTTTTTTTTTTTTT…TC
Conditions: aptamer strand: ATP DNA aptamer (quencher-CACCTGGGGGAGTATTGCGGAGGAAGG + anchor), 100 nM annealed; ATP concentration: 500 uM
How it was run: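 Exposure to 500 uM ATP lasted 15 min at 22 °C before imaging, and a selection-buffer image was taken beforehand, for Cy3-labelled switching-strand clusters on a modified Illumina MiSeq flow-cell annealed to 100 nM quencher-labelled ATP aptamer. Five buffer/ATP cycles were run with NaOH stripping and re-annealing between them. The fluorescence ratio per cluster is summed target-cycle over summed buffer-cycle Cy3 intensity, averaged per switch-domain sequence. Clusters outside 100-1000 RFU were excluded.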

| Sequence | switch fluorescence ratio |
| --- | --- |
| GGCTACAGGG | 0.999 ± 0.011 |
| GGCTAGAAAA | 1 ± 0.0099 |
| GGCTAGACGT | 1.031 ± 0.0023 |
| GGCTATCTGT | 1 ± 0.047 |
| GGCTCAGAGA | 1.004 ± 0.0045 |
| GGCTCAGGTA | 1.04 ± 0.013 |
| GGCTCATTAT | 0.9719 ± 0.0034 |
| GGCTCGGGGG | 1.03 ± 0.029 |
| GGCTCTCGTA | 0.992 ± 0.012 |
| GGCTCTTCGG | 0.989 ± 0.04 |
| GGCTGAGCGG | 0.976 ± 0.027 |
| GGCTGCCGGG | 1.02 ± 0.025 |
| GGCTGCTTTC | 1.03 ± 0.055 |
| GGCTGGATGG | 0.961 ± 0.014 |
| GGCTGGCATT | 1.11 ± 0.15 |
| GGCTGGGCGA | 0.983 ± 0.02 |
| GGCTGTGTTT | 0.981 ± 0.028 |
| GGCTTAATGG | 1.01 ± 0.023 |
| GGCTTCTGAT | 0.999 ± 0.022 |
| GGCTTGGAAA | 0.973 ± 0.011 |
| GGCTTGGAAT | 0.989 ± 0.011 |
| GGCTTGGGAA | 0.968 ± 0.027 |
| GGCTTGGGGC | 0.9756 ± 0.0032 |
| GGCTTGGGTG | 1.08 ± 0.032 |
| GGCTTGGTGT | 1 ± 0.013 |

| Sequence | switch fluorescence ratio |
| --- | --- |
| GGCTTTTTGG | 0.99 ± 0.02 |
| GGCTTTTTTA | 1.05 ± 0.028 |
| GGGAAAAGGA | 1.018 ± 0.0094 |
| GGGAAAAGGT | 1.04 ± 0.021 |
| GGGAAAATTA | 0.997 ± 0.019 |
| GGGAAACGGT | 1.03 ± 0.011 |
| GGGAAACTTG | 0.988 ± 0.017 |
| GGGAAAGGAA | 0.989 ± 0.018 |
| GGGAAAGGGG | 1.01 ± 0.02 |
| GGGAAAGTCG | 1 ± 0.036 |
| GGGAACATTT | 1.022 ± 0.0086 |
| GGGAACGTCG | 1.011 ± 0.01 |
| GGGAACGTGT | 0.997 ± 0.019 |
| GGGAAGAAGC | 0.997 ± 0.054 |
| GGGAAGAGTG | 0.993 ± 0.02 |
| GGGAAGATTA | 0.966 ± 0.031 |
| GGGAAGGTGT | 1.1 ± 0.11 |
| GGGAAGGTTG | 1.04 ± 0.021 |
| GGGAAGTATA | 1 ± 0.027 |
| GGGAAGTCGT | 0.964 ± 0.039 |
| GGGAATACTA | 1.38 ± 0.37 |
| GGGAATAGT | 0.9898 ± 0.0014 |
| GGGAATGCTA | 0.9999 ± 0.0068 |
| GGGAATGTAT | 0.979 ± 0.037 |
| GGGAATTATA | 0.984 ± 0.018 |

| Sequence | switch fluorescence ratio |
| --- | --- |
| GGGAATTCTA | 0.991 ± 0.021 |
| GGGAATTGGG | 0.997 ± 0.018 |
| GGGAATTGTG | 0.993 ± 0.06 |
| GGGACCAATT | 1 ± 0.022 |
| GGGACGACAG | 1.04 ± 0.031 |
| GGGACGATTG | 0.985 ± 0.059 |
| GGGACGGATT | 1 ± 0.021 |
| GGGACTAGTG | 1 ± 0.029 |
| GGGACTGGTA | 1 ± 0.049 |
| GGGACTTACC | 1.08 ± 0.02 |
| GGGACTTGGA | 0.9765 ± 0.009 |
| GGGACTTTTT | 0.999 ± 0.043 |
| GGGAGAAAAG | 0.984 ± 0.014 |
| GGGAGAATGG | 0.98 ± 0.028 |
| GGGAGACCAA | 0.9822 ± 0.0031 |
| GGGAGAGAAC | 0.992 ± 0.012 |
| GGGAGAGAGT | 0.999 ± 0.029 |
| GGGAGAGCGG | 0.9662 ± 0.0095 |
| GGGAGAGGCT | 0.9764 ± 0.0016 |
| GGGAGATAGC | 1.06 ± 0.015 |
| GGGAGATTAG | 0.979 ± 0.015 |
| GGGAGCAGGG | 0.909 ± 0.058 |
| GGGAGCCGGT | 1.02 ± 0.015 |
| GGGAGCCTAC | 1.038 ± 0.0081 |
| GGGAGCCTTC | 1.01 ± 0.031 |

| Sequence | switch fluorescence ratio |
| --- | --- |
| GGGAGCGGGT | 1.04 ± 0.025 |
| GGGAGCTACA | 1.02 ± 0.017 |
| GGGAGCTGAA | 1.04 ± 0.04 |
| GGGAGCTGAG | 1.015 ± 0.0055 |
| GGGAGGAGGA | 0.974 ± 0.026 |
| GGGAGGATGC | 0.993 ± 0.059 |
| GGGAGGCGGG | 0.99 ± 0.019 |
| GGGAGGGAGT | 1.01 ± 0.024 |
| GGGAGGGATG | 1.02 ± 0.024 |
| GGGAGGGCGG | 0.975 ± 0.051 |
| GGGAGGGCGT | 0.981 ± 0.034 |
| GGGAGGGCTT | 1.05 ± 0.092 |
| GGGAGGTCAG | 0.992 ± 0.035 |
| GGGAGGTTGC | 1.09 ± 0.23 |
| GGGAGGTTTT | 1.04 ± 0.084 |
| GGGAGTAGGC | 0.731 ± 0.022 |
| GGGAGTAGGT | 1.008 ± 0.0094 |
| GGGAGTCGGG | 1.01 ± 0.0092 |
| GGGAGTGATG | 0.986 ± 0.019 |
| GGGAGTTAAT | 0.97 ± 0.019 |
| GGGATAACGG | 0.962 ± 0.018 |
| GGGATAAGGA | 0.99 ± 0.044 |
| GGGATAAGGG | 1.01 ± 0.027 |
| GGGATAATTA | 1.01 ± 0.029 |
| GGGATAGAGG | 0.999 ± 0.051 |

| Sequence | switch fluorescence ratio |
| --- | --- |
| GGGATAGCCG | 1 ± 0.059 |
| GGGATAGGCA | 1.01 ± 0.039 |
| GGGATAGGGT | 1 ± 0.027 |
| GGGATATAGT | 0.9696 ± 0.0044 |
| GGGATATGAA | 0.992 ± 0.018 |
| GGGATATGGG | 0.995 ± 0.045 |
| GGGATCAGTG | 0.995 ± 0.03 |
| GGGATCATGG | 1.08 ± 0.083 |
| GGGATCCGAC | 1.05 ± 0.041 |
| GGGATCGGGG | 0.988 ± 0.019 |
| GGGATCGGTT | 0.982 ± 0.034 |
| GGGATCTATA | 0.9721 ± 0.0081 |
| GGGATCTATG | 1.02 ± 0.027 |
| GGGATGAACT | 1.01 ± 0.013 |
| GGGATGAAGA | 1 ± 0.013 |
| GGGATGACGA | 0.98 ± 0.042 |
| GGGATGAGGT | 1 ± 0.033 |
| GGGATGGGAG | 1.02 ± 0.038 |
| GGGATGGGGC | 1.04 ± 0.042 |
| GGGATGGGGG | 1 ± 0.043 |
| GGGATGGTGG | 0.991 ± 0.024 |
| GGGATGTGGT | 1.01 ± 0.023 |
| GGGATGTTGG | 1.006 ± 0.0071 |
| GGGATTAACT | 1 ± 0.031 |
| GGGATTAAGA | 0.98 ± 0.026 |

| Sequence | switch fluorescence ratio |
| --- | --- |
| GGGATTAATG | 1.01 ± 0.015 |
| GGGATTACGT | 1.03 ± 0.029 |
| GGGATTATTT | 0.972 ± 0.02 |
| GGGATTCAG | 1.0226 ± 0.0002 |
| GGGATTCTTG | 1.01 ± 0.04 |
| GGGATTTCCG | 0.992 ± 0.018 |
| GGGATTTGCG | 1 ± 0.046 |
| GGGATTTGCT | 0.963 ± 0.022 |
| GGGATTTTCC | 0.979 ± 0.044 |
| GGGATTTTCG | 0.98 ± 0.023 |
| GGGATTTTGA | 0.999 ± 0.017 |
| GGGCAAAGGT | 1.09 ± 0.16 |
| GGGCAAGTGT | 1.06 ± 0.034 |
| GGGCACATGG | 1.02 ± 0.029 |
| GGGCAGATGG | 0.988 ± 0.034 |
| GGGCAGCTGG | 0.981 ± 0.042 |
| GGGCAGGCTT | 0.98 ± 0.017 |
| GGGCAGGTAG | 1.03 ± 0.031 |
| GGGCAGTGGG | 1.05 ± 0.074 |
| GGGCATCGAC | 1.05 ± 0.017 |
| GGGCATCTTT | 1 ± 0.06 |
| GGGCATGGAG | 0.992 ± 0.02 |
| GGGCATGTTG | 1.02 ± 0.03 |
| GGGCCACCAG | 1.01 ± 0.032 |
| GGGCCCGGCA | 0.9814 ± 0.0049 |

| Sequence | switch fluorescence ratio |
| --- | --- |
| GGGCCGTTGC | 0.948 ± 0.029 |
| GGGCCTGGAA | 1.01 ± 0.069 |
| GGGCCTGGGG | 0.998 ± 0.048 |
| GGGCCTTGGG | 1.03 ± 0.049 |
| GGGCCTTTTT | 0.9864 ± 0.006 |
| GGGCGAAGTC | 0.975 ± 0.03 |
| GGGCGACGGC | 1.04 ± 0.047 |
| GGGCGACGGG | 0.996 ± 0.046 |
| GGGCGAGCTC | 0.9982 ± 0.0061 |
| GGGCGAGGGG | 1.01 ± 0.026 |
| GGGCGCGTTT | 0.9623 ± 0.0072 |
| GGGCGCTAGG | 0.971 ± 0.014 |
| GGGCGCTGGG | 1 ± 0.032 |
| GGGCGGATTT | 1.024 ± 0.008 |
| GGGCGGCGGG | 1.05 ± 0.053 |
| GGGCGGGATG | 0.984 ± 0.037 |
| GGGCGGGTGT | 0.987 ± 0.059 |
| GGGCGGTGGG | 1 ± 0.068 |
| GGGCGTATGT | 0.981 ± 0.023 |
| GGGCGTTGTG | 1.05 ± 0.11 |
| GGGCTAAAAG | 0.97428 ± 3.4e-05 |
| GGGCTAGACG | 0.997 ± 0.085 |
| GGGCTAGTCA | 0.965 ± 0.019 |
| GGGCTATCCG | 0.983 ± 0.024 |
| GGGCTATGGG | 0.997 ± 0.049 |

| Sequence | switch fluorescence ratio |
| --- | --- |
| GGGCTCATGG | 1.042 ± 0.0061 |
| GGGCTGAAGG | 1.004 ± 0.01 |
| GGGCTGACAG | 1.035 ± 0.0012 |
| GGGCTGATAG | 1.01 ± 0.025 |
| GGGCTTAACG | 0.982 ± 0.014 |
| GGGCTTATGG | 0.975 ± 0.054 |
| GGGCTTCGTT | 0.9929 ± 0.0074 |
| GGGCTTGGGG | 0.999 ± 0.031 |
| GGGCTTTTTC | 1.02 ± 0.034 |
| GGGGAAAACT | 1.01 ± 0.022 |
| GGGGAAAGTC | 1 ± 0.032 |
| GGGGAAATGG | 1.01 ± 0.025 |
| GGGGAACGGC | 0.963 ± 0.036 |
| GGGGAACGTT | 0.947 ± 0.049 |
| GGGGAACTTC | 1.05 ± 0.045 |
| GGGGAAGCCA | 0.979 ± 0.024 |
| GGGGAAGGCA | 0.946 ± 0.084 |
| GGGGAAGGCC | 1.01 ± 0.018 |
| GGGGAAGTAC | 1.53 ± 0.31 |
| GGGGAATGGC | 1.05 ± 0.1 |
| GGGGAATTTA | 1 ± 0.024 |
| GGGGACATGC | 0.982 ± 0.078 |
| GGGGACCAGT | 0.9845 ± 0.0031 |
| GGGGACCCTG | 0.974 ± 0.029 |
| GGGGACCGGC | 0.954 ± 0.041 |
